Data taken from paper PMC12521282.

Experiments:
Details in all cases: glycan lost; control: wild type
[1] = NanoDSF, onset of melting, Tris buffer
[2] = NanoDSF, midpoint melting temperature
[3] = DSLNT formation, TLC and HPLC
[4] = CD spectroscopy, secondary structure content
[5] = secreted protein yield, P. pastoris X-33
[6] = NanoDSF, onset and Tm, Tris and HEPES

Protein	stability_or_folding, other: onset-of-melting temperature [1]	stability_or_folding, Tm [2]	enzymatic_activity, other: DSLNT produced [3]	structure_or_conformation [4]	expression_or_secretion, fold_change [5]	enzymatic_activity [3]	stability_or_folding, Tm [6]
ST6GalNAc5 (Δ71ST6GalNAc5): N137Q/N161Q (protein) parent chain: MKTLMRHGLAVCLALTTMCTSLLLVYSSLGGQKERPPQQQQQQQQQQQQASATGSSQPAAESSTQQRPGVPAGPRPLDGYLGVADHKPLKMHCRDCALVTSSGHLLHSRQGSQIDQTECVIRMNDAPTRGYGRDVGNRTSLRVIAHSSIQRILRNRHDLLNVSQGTVFIFWGPSSYMRRDGKGQVYNNLHLLSQVLPRLKAFMITRHKMLQFDELFKQETGKDRKISNTWLSTGWFTMTIALELCDRINVYGMVPPDFCRDPNHPSVPYHYYEPFGPDECTMYLSHERGRKGSHHRFITEKRVFKNWARTFNIHFFQPDWKPESLAINHPENKPVF	decreases	no change	decreases, 0.189 ± 0.005 (4.5 µM enzyme) vs 0.202 ± 0.036 (1.0 µM enzyme)	changes	decreases	–	–
ST6GalNAc6 (Δ70ST6GalNAc6): N98Q/N149Q (protein) parent chain: MACSRPPSQCEPTSLPPGPPAGRRHLPLSRRRREMSSNKEQRSAVFVILFALITILILYSSNSANEVFHYGSLRGRSRRPVNLKKWSITDGYVPILGNKTLPSRCHQCVIVSSSSHLLGTKLGPEIERAECTIRMNDAPTTGYSADVGNKTTYRVVAHSSVFRVLRRPQEFVNRTPETVFIFWGPPSKMQKPQGSLVRVIQRAGLVFPNMEAYAVSPGRMRQFDDLFRGETGKDREKSHSWLSTGWFTMVIAVELCDHVHVYGMVPPNYCSQRPRLQRMPYHYYEPKGPDECVTYIQNEHSRKGNHHRFITEKRVFSSWAQLYGITFSHPSWT	–	–	–	changes	decreases	abolishes	decreases, reduced by 7.3 (Tris), 10 (HEPES) vs 56.8
